In patent US20260183411A1, “TARGETING SORTILIN” (priority 2024, published 2026):

How the values were obtained:
MDA-MB-231 xenograft = assay: MDA-MB-231 murine xenograft efficacy model; format: in vivo, mouse
Procedure, shortened: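 Female BALB/c nude mice bearing subcutaneous MDA-MB-231 tumours (10×10^6 cells in PBS/Matrigel), treated from ~150-200 mm^3 mean volume. Free MMAE given i.v. QW×4 at 0.6 or 0.06 mg/kg in 25 mM histidine/10% sucrose pH 7. Caliper volumes twice weekly; TGI (%) calculated against vehicle group.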

SORT1 = biological target: T1, SORT1 (Homo sapiens, UniProt Q99523); assay: FP competition binding assay
T1 construct: Human SORT1 (78-755)-His (Acrobiosystems); His (C); purchased Acrobiosystems SON-H52H5
T1 sequence (Q99523 78-755): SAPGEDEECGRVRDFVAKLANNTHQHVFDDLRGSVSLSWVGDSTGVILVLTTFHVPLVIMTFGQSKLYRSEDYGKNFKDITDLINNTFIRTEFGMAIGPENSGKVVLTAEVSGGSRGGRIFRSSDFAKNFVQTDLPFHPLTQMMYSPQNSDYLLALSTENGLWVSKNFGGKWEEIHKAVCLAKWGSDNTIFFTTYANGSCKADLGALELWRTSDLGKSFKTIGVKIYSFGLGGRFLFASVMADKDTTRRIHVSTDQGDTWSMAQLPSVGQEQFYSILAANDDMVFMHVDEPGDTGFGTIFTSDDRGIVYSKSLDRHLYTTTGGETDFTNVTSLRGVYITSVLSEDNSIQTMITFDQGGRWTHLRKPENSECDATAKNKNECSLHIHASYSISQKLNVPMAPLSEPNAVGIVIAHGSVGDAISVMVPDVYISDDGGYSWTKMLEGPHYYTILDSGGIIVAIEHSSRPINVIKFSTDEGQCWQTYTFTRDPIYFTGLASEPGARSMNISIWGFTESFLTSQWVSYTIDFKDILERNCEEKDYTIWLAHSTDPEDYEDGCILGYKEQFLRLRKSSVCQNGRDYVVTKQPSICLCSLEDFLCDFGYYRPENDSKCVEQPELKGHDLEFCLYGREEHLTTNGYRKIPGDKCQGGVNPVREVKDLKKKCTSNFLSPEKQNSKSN
Description: Competition binding studies were conducted in a similar manner to the direct binding protocol. Unlabeled peptides were prepared with a 12-point, two-fold dilution series in a V-bottom 96-well plate for a total volume of 25 uL with a starting concentration of 50 μM. A 10× working stock of the FAM labeled peptide was prepared as described for the Direct binding experiment.
A 500 nM working solution (EC80) of target protein was prepared in the FP buffer (1×PBS, pH 7.4, 0.1% Tween-20). An aliquot of 20 μL of the 500 nM working solution was then added to 2.5 μL of the FAM-peptide, after which 2.5 μL of the unlabeled peptide dilution series was added and mixed by pipetting in a V-bottom 96-well plate. […] The 384-well plate was then centrifuged 1 min, 4000 rpm and fluorescence and polarization of dye measured on a Biotek Synergy Neo2 plate reader using the same settings as for the Direct Binding experiment. Data were then fitted to a One site—Fit log IC50 curve in GraphPad to calculate the IC50.
The various conjugates were evaluated in a competitive fluorescence polarization study as described elsewhere herein.

[1] = Maximum tolerated dose (MTD) study; format: in vivo, mouse
Description: BALB/c Nude mice, female, 6-8 weeks, weighing approximately 18-22 g were purchased from the Shanghai SLAC Laboratory Animal Co., LTD. MTD studies were conducted at WuXi AppTec and the care and use of animals was conducted in accordance with the regulations of the Association for Assessment and Accreditation of Laboratory Animal Care (AAALAC). Two MTD studies were performed (a) a low dose study with doses ranging from 0.1, 0.5, 1 and 3 mg/kg and (b) a high dose study with doses ranging from 3, 5, 10 mg/kg. Dosing volume was determined based on body weight (10 ul/g) and PDCs were dissolved in 25 mM Histidine 10% sucrose pH 7 and administered i.v. at a single dose at day 0. The treatment and observation were conducted up to 7 days and MTD was defined by ≥20% body weight loss. Body weights were measured daily, death and observed clinical signs were recorded.
Doses of 3, 5, and 10 mg/kg were administered. MTD was defined by ≥20% body weight loss and body weight measured daily.

Structure (SMILES): CC[C@H](C)[C@@H]([C@@H](CC(=O)N1CCC[C@H]1[C@H](OC)[C@@H](C)C(=O)N[C@H](C)[C@@H](O)c1ccccc1)OC)N(C)C(=O)[C@@H](NC(=O)[C@H](C(C)C)N(C)C(=O)OCc1ccc(NC(=O)[C@H](CCCNC(N)=O)NC(=O)[C@@H](NC(=O)CCCC(=O)NCCC(=O)N(C)CC(=O)N(C)CC(=O)N(C)CC(=O)N(C)CC(=O)N[C@@H](C)C(=O)N2CCC[C@H]2C(=O)N[C@@H](CCCNC(=N)N)C(=O)N[C@@H](Cc2c[nH]c3ccccc23)C(=O)N[C@@H](CC(=O)O)C(=O)N[C@@H](C)C(=O)N2CCC[C@H]2C(=O)N[C@@H](CC(C)C)C(=O)N[C@@H](CCCNC(=N)N)C(=O)N[C@@H](CC(=O)O)C(=O)N2CCC[C@H]2C(=O)N[C@@H](C)C(=O)N[C@@H](CC(C)C)C(=O)N[C@@H](CCCNC(=N)N)C(=O)N[C@@H](CCC(N)=O)C(=O)N[C@@H](CC(C)C)C(=O)N[C@@H](CC(C)C)C(=O)O)C(C)C)cc1)C(C)C [PRGN_WT_PDC]
- tumor growth inhibition, dose dependence (MDA-MB-231 xenograft; 3, 1, 0.3 mg/kg i.v. QW×4): dose-dependent tumor growth inhibition
- body weight variation (Example 6) (MDA-MB-231 xenograft; PDC at each dose, free MMAE at equivalency to 3 mg/kg PDC): mirrored that observed with vehicle treatment
- body weight loss (Example 8) (MDA-MB-231 xenograft; PDCs 3 mg/kg, free MMAE at molar equivalency (0.6 mg/kg)): body weight loss tracked each other
- increase in affinity relative to parent homing peptide (SORT1): ~2.5 ×
- sustained body weight loss ([1]; 5 mg/kg i.v. single dose, after 48 hrs, recovered at Day 7): ~15%
- toxicity ([1]; 10 mg/kg i.v. single dose): significant toxicity
- body weight loss ([1]; 10 mg/kg i.v. single dose, after 48 hrs, BALB/c nude mice): greater than 20%
